Data reported in US20230399394A1 (SUNSHINE GUOJIAN PHARMACEUTICAL SHANGHAI, published 2023).

Columns and labels:
[1] = biological target: T1, IL-33 mutant protein K70A (human, UniProt O95760 112-270); experiment: ELISA as Example 9; row K70A against WT-3
T1 construct: Prokaryotic expression
T1 chain: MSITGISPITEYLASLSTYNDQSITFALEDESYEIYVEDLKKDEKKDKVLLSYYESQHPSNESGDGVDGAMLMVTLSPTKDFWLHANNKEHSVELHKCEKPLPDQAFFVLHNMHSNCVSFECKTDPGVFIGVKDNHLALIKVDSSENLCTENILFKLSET
Description: SA protein was diluted to 2 μg/mL to coat ELISA plate at 100 μL/well overnight at 4° C. The plate was washed with PBST (PBS containing 0.05% Tween20) for 3 times, and blocked with 2% BSA prepared in PBS at 200 μL/well, at room temperature for 2 h. After the plate was washed twice with PBST, IL-33-his-biotin protein was diluted to 1 μg/mL with 1% BSA prepared in PBST, and was added to ELISA plate at 100 μL/well. The plate was incubated at room temperature for 1 h, and each monoclonal antibody was diluted with 1% BSA prepared in PBST in a 3-fold gradient. The highest concentration of antibody was 10 μg/mL, and the antibody was diluted for 12 gradients. Each diluted monoclonal antibody was added to ELISA wells with 100 μL/well, and the plate was incubated at room temperature for 1 h. Each sample was added to duplicate wells in parallel. The plate was washed with PBST for 3 times, and HRP-anti human IgG Fc secondary antibody prepared with PBST was diluted at an appropriate ratio, and was added to ELISA wells at 100 μL/well. […] Each reaction solution was shaken uniformly and OD450 nm was read on a microplate reader. The data was analyzed and EC₅₀ was calculated.
Subsequently, according to the experimental method of Example 9, the affinity of the above mutant proteins to 874F7-Hu1 was determined, and IL-33 proteins (WT-1, WT-2, WT-3, and WT-4) without any mutation were set as controls.

Human IL-33-his [2] = biological target: T2, Human IL-33-his (human, UniProt O95760 112-270, biotinylated with EZ-Link NHS-Biotin where used as IL-33-his-biotin); experiment: competition ELISA as Example 10, ST2-Fc on plate; competitor ST2-Fc
T2 construct: Used plain (SPR, cell assays) and biotinylated (ELISA); also called IL-33-his-biotin
T2 sequence: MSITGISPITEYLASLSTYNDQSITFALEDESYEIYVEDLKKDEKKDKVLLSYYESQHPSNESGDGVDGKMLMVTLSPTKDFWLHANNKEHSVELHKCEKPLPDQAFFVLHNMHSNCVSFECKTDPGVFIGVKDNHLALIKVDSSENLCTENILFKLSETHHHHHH
Description: ST2-Fc protein was diluted to 1 μg/mL with ELISA coating solution to coat ELISA plate with 100 μL/well. The plate was placed in a wet box at 4° C. for 16 h for coating. The ELISA plate was washed 3 times with PBST, and then was blocked with 2% BSA prepared in PBS at 200 μL/well at room temperature for 2 h. The plate was washed once with PBST, and was patted dry to remove the excess blocking solution. Each monoclonal antibody was diluted with 1% BSA prepared in PBST in a 3-fold gradient. The highest concentration of antibody was 10 μg/mL, and the antibody was diluted for 11 gradients. The diluted antibody was mixed 1:1 with 10 ng/ml IL-33-his-biotin, and then the mixture was added into the ELISA well at 100 μL/well. The plate was incubated at room temperature for 1 h. Each concentration was added to duplicate wells in parallel (maximum final concentration of antibody was […], final concentration of IL-33-his-biotin was 5 ng/mL). Unbound or non-specifically bound primary antibodies were washed out. According to the instructions of the antibody, HRP labeled streptavidin secondary antibody was diluted to an appropriate concentration with antibody diluent solution, then it was added to ELISA plate with 100 μL/well, and was incubated at room temperature for 1 h. The ELISA plate was washed with PBST for 5 times, and was patted dry on absorbent paper to remove excess liquid. TMB developing solution was added with 100 μL/well for development to an appropriate degree. 2M H₂SO₄ was added with 70 μL/well to terminate development, and the absorbance was measured at 450 nm on a multifunctional microplate reader. The data were analyzed.
The blocking effect of the above humanized antibodies on the binding of IL-33 to its receptor ST2 was determined by the ELISA method, and the relevant experimental methods were referred to Example 10.

Human IL-33-his [3] = biological target: T2, Human IL-33-his; experiment: SPR Biacore 8K as Example 14, antibody captured, antigen as analyte
Description: (§1) A chip with covalently coupled Protein A/G (purchased from GE Healthcare, catalog number BR-1005-30) was used to capture each antibody to be tested, and the relevant operating parameters were as follows: The antibody concentration was […], the contact time was 75 s, the flow rate was […], and the regeneration contact time was 30 s. The IL-33-his antigen was diluted with HBS-EP pH7.4 buffer solution (purchased from GE Healthcare, catalog number BR-1006-69). The maximum concentration was 50 nM, and diluted to 0.39 nM by two-fold dilution. Duplicate wells and 0 concentration point well were set, and 6M guanidine hydrochloride solution was used as the regeneration buffer. The sample was injected on Biacore 8K according to the following parameters, the binding time was 180 s, the dissociation time was 900 s, the flow rate was 30 μL/min, and the regeneration contact time was 30 s. After running, Biacore 8K Evaluation Software was used to analyze the data according to the “1:1 binding kinetics model”, and the binding kinetics parameters of each antibody to IL-33 were obtained.
(§2) The experimental methods were referred to Example 14, in which the antigens cynomolgus IL-33 protein (purchased from Sino catalog number 90912-CNAE) and mouse IL-33 protein (purchased from R&D, 3626-ML-010/CF) were used, and human IL-33 protein was used as the control. Both 864F3-Hu4 and 874F7-Hu1 cross-react with cynomolgus IL-33 protein, and are consistent with the characteristics of each antibody binding to human IL-33 protein.

Mouse IL-33 protein = biological target: T3, Mouse IL-33 protein (mouse, UniProt Q8BVZ5 109-266); experiment: as above
T3 construct: Bought protein
T3 sequence (looked up): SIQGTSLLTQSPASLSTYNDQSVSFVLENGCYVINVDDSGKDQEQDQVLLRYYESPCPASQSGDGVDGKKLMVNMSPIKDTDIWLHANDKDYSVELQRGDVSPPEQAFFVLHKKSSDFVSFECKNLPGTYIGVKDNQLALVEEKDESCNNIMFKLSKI
Description: as §1, §2

Affinity decline ratio [1]: 0.6 fold
IC50 (Human IL-33-his [2]): 0.451 nM
Kd (Human IL-33-his [3]): 1.13 nM
koff (Human IL-33-his [3]): 0.000204 s⁻¹
kon (Human IL-33-his [3]): 180000 M⁻¹ s⁻¹
Kd (Mouse IL-33 protein): 33.2 nM
koff (Mouse IL-33 protein): 0.00212 s⁻¹
kon (Mouse IL-33 protein): 64000 M⁻¹ s⁻¹
B1: 874F7-Hu1 (antibody, human IgG4 S228P, kappa)
heavy: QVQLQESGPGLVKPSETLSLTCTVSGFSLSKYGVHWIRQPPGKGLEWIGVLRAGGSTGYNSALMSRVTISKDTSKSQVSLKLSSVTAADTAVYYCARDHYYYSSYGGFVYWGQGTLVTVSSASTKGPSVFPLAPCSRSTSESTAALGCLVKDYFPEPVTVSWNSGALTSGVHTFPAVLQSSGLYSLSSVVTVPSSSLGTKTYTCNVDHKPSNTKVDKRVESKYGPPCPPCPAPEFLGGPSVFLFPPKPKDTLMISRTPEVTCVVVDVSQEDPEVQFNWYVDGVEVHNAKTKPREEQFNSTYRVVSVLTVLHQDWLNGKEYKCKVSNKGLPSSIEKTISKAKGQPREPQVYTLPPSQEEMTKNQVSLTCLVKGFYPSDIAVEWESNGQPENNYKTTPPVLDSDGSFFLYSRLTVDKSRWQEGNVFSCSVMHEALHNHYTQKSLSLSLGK
light: DIQMTQSPSSVSASVGDRVTITCLASQTIGAWLAWYQQKPGKSPKLLIYAATRLADGVPSRFSGSGSGTDFTLTISSLQPEDFATYYCQQLDSSPYTFGQGTKVEIKRTVAAPSVFIFPPSDEQLKSGTASVVCLLNNFYPREAKVQWKVDNALQSGNSQESVTEQDSKDSTYSLSSTLTLSKADYEKHKVYACEVTHQGLSSPVTKSFNRGEC
notes: also called 874F7-Hul; humanized antibody 874F7-Hu1
